Measured values as given in US20210292393A1 (published 2021).
Numbering of substitutions follows the chain as printed.

B1: antibody 548 (antibody, V domains shown)
VH: QVQLVESGGGVVQPGRSLRLSCAASGFTFSSYAMHWVRQAPGKGLEWVAVISYDGSNKYYADSVKGRFTISRDNSKNTLYLQMNNLRAEDTAVYYCAKSGSGSYLSAFDIWGQGTMVTVSS
VL: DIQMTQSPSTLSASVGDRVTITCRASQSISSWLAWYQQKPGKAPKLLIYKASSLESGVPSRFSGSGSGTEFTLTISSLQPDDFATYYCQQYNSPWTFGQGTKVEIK
B2: antibody 545 (antibody, V domains shown)
VH: QVQLVQSGSELKKPGASVKVSCKASGYTFTSYAMNWVRQAPGQGLEWMGWINTNTGNPTYAQGFTGRFVFSLDTSVSTAYLQISVLKAEDTGVYYCARDHELPNSSSWFGHFEYWGQGTLVTVSS
VL: SYELTQPPSVSVSPGQTARITCSGDALPKQYAYWYQQKAGQAPVLVIYKDSERRSGIPERFSGSSSGTTVTLTISGVQAEDEADYYCQSADSSGTSVVFGGGTKLTVL
B3: antibody 547 (antibody, V domains shown)
VH: QVHLVESGGGVVQPGRSLRLSCAASGFALSSYAMHWVRQPPGKGLEWVALISYDGSVKKYADSVKGRITVSGDNSRNTLHLQINSLRADDTAVYYCVRGGVSGPNSFDLWGHGTMVTVSS
VL: DVVLTQSPLSLPVTLGQPASISCRSSQSLEYSVGNTYVNWFQQRPGQSPRRLIYKVSNRDSGVPDRFSGSGSGTDFTLQISRVEADDVGIYYCMQGTHWPVTFGQGTKVEIK
B4: antibody 546 (antibody, V domains shown)
VH: QVQLVESGGGVVQPGRSLRLSCAASGFTFSSYGMHWVRQAPGKGLEWVAVIWYDGSNKYYADSVKGRFTISRDNSKNTLYLQMNSLRAEDTAVYYCARNCGGDCVAGDGFDYWGQGTLVTVSS
VL: DIQMTQSPSSLSASVGDRVTITCRASQSISSYLNWYQQKPGKAPNLLIYAASSLQSGVPSRFSGSGSGTDFTLTISSLQPEDFATYYCQQSYSALTWTFGQGTKVEIK
B5: antibody 431 (antibody, V domains shown)
VH: QVQLVESGGGVVQPGRSLRLSCAASGFTFSSYAMHWVRQAPGKGLEWLAVISYDGSNKYYADSVKGRFTISRDNSKNTLYLQMNSLRAEDTAVYYCARSFRGGYYYGMDVWGQGTTVTVSS
VL: DIQLTQSPSFLSASVGDRVTITCRASQGISSYLAWYQQKPGKAPKLLIYAASTLQSGVPSRFSGSGSGTEFTLTISSLQPEDFATYYCQQLNSYPLFTFGPGTKVDIK
B6: antibody 385 (antibody, V domains shown)
VH: B1 VH with M34I, N85S, K98R, S99P, G100R, L105W, S106G
VL: QSVLTQPPSVSGAPGQRVTISCTGSSSNIGARYDVHWYQQLPGTAPKLLIYGNSNRPSGVPDRFSGSKSGTSASLAITGLQAEDEADYYCQSYDSSLRGVFGGGTKLTVL
B7: antibody 392 (antibody, V domains shown)
VH: QVQLQESGPGLVKPSGTLSLTCAVSGGSISSSNWWSWVRQPPGKGLEWIGEIYHSGSTNYNPSLKSRVTISVDKSKNQFSLKLSSVTAADTAVYYCARGWRATLYGMDVWGQGTTVTVSS
VL: QSALTQPASVSGSPGQSITISCTGTSSDVGSYNLVSWYQQHPGKAPKLMIYEVSKRPSGVSNRFSGSKSGNTASLTISGLQAEDEADYYCCSYAGSSTWVFGGGTKLTVL
B8: antibody 405 (antibody, V domains shown)
VH: not shown
VL: B7 VL with A8R, I18V, S31G, L34Y, E52D, S61P, N62D, S97Y, T98N, W99V
B9: antibody 412 (antibody, V domains shown)
VH: QVQLVQSGAEVKKPGASVKVSCKASGYTFTSYGISWVRQAPGQGLEWMGWISAYNGNTNYAQKLQGRVTMTTDTSTSTAYMELRSLRSDDTAVYYCARVTVEAIFGVVILPLKNWFDPWGQGTLVTVSS
VL: QSVLTQPPSVSGAPGQRVTISCTGSSSNIGAGYDVHWYQQLPGTAPKLLIYGNSNRPSGVPDRFSGSKSGTSASLAITGLQAEDEADYYCQSYDSSLTLYVFGTGTKVTVL
B10: antibody 407 (antibody, V domains shown)
VH: QVQLVESGGGVVQPGRSLRLSCAASGFTFSSYGMHWVRQAPGKGLEWVAVISYDGSNKYYADSVKGRFTISRDNSKNTLYLQMNSLRAEDTAVYYCAKCGWDYDFWVGQGYGMDVWGQGTTVTVSS
VL: not shown
B11: antibody 396 (antibody, V domains shown)
VH: QVQLQQWGAGLLKPSETLSLTCAVYGGSFSGYYWSWIRQPPGKGLEWIGEIIHSGSTNYNPSLKSRVTISVDTSKNQFSLKLSSVTAADTAVYYSARRTGLLWFREGSYYFDYWGQGTLVTVSS
VL: DIQMTQSPSSLSASVGDRVTITCRASQGIRNDLGWYQQKPGKAPKRLIYAASSLQSGVPSRFSGSGSGTEFTLTISSLQPEDFATYYCLQHNSYPLTFGGGTKVEIK
B12: antibody 423 (antibody, V domains shown)
VH: EVQLVESGGGLIQPGGSLRISCAASGFTVRNNHMSWVRQAPGKGLEWVSVFYRGGTTYYADSVKGRFTISRDDSKNTVDLQMNSLRGEDTAVYYCARGLSVAASGYFDCWGQGTLVTVSS
VL: DIQMTQSPSSVSASVGDTVTITCRANQGISSWLAWYQQVPGKAPELLIYATSTLQSGVPSRFSGSGSGTDFTLTISSLQPEDFATYYCQQANSFPFTFGPGTKVDIK
B13: antibody 404 (antibody, V domains shown)
VH: QVQLVESGGGVVQPGRSLRLSCAASGFTFSSYGMHWVRQAPGKGLEWVAVIWYDGSNKYYADSVKGRFTISRDNSKNTLYLQMNSLRAEDTAVYYCARLAVDISFDGSDGMDVWGQGTTVTVSS
VL: SYELTQPPSVSVSPGQTARITCSGDALPKKYAYWYQQKSGQAPVLVIYEDSKRPSGIPERFSGSSSGTMATLTISGAQVEDEADYYCYSTDSSGKGVFGTGTKVTVL
B14: antibody 395 (antibody, V domains shown)
VH: QVQLVQSGSELKKPGASVKLSCQASGYTFSNHAMNWVRQAPGQGLEWMGWINTNTGNPTYAQGFTGRFVFSLDTSVGTAYLHISSLKAEDTAFYYCARASARPGVATNLDFWGQGTLVVVSS
VL: DIQMTQSPSSLSASVGDRVTITCRTSQNIDNYLNWYQQKPGKAPNLLIYAASRLHSGVPSRFSGSGSGTDFTLIISSLQPEDLATYYCQQSYSNPLTFGPGTKVDIR
B15: antibody 421 (antibody, V domains shown)
VH: QVQLVESGGGVVQPGRSLRLSCAASGFTFSTYAMHWVRQAPGKGLEWVAVISYDGSNKYYADSVKGRFTISRDNSKNTLYLQMNSLRAEDTAVYYCARGYGSGSYYPLYLYWGQGTLVTVSS
VL: not shown
B16: antibody 409 (antibody, V domains shown)
VH: QVTLRESGPALVKPTQTLTLTCTFSGFSLSTSGMCVSWIRQPPGKALEWLALIDWDDDKYYSTSLKTRLTISKDTSKNQVVLTMTNMDPVDTATYYCARTTYYYVSGRRAEFDPWGQGTLVTVSS
VL: NFMLTQPHSVSESPGKTVTISCTGSSGSIASNYVQWYQQRPGSAPTTVIYEDNQRPSGVPDRFSGSIDSSSNSASLTISGLKTEDEADYYCQSYDSSNQGVFGGGTKLTVL
B17: antibody 422 (antibody, V domains shown)
VH: QVQLVQSGSELKKPGASVKVSCKASGYTFTSYAMNWVRQAPGQGLEWMGWINTNTGNPTYAQGFTGRFVFSLDTSVSTTYLQISSLKAEDTAVYYCARVIGVVTYYYYGMDVWGQGTTVTVSS
VL: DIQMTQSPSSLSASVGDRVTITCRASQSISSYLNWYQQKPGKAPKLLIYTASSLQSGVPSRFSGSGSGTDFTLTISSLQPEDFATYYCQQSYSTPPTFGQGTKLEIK
B18: antibody 446 (antibody, V domains shown)
VH: B1 VH with N85S, K98R, S99P, G100N, L105F, S106G, A107Y, D109Q, I110H, M116L
VL: QSVLTQPPSVSGAPGQRVTISCTGSSSNIGAGYDVHWYQQLPGTAPKLLIYGNSNRPSGVPDRFSGSKSGTSASLAITGLQAEDEADYYCQSYDSSLSGFYVFGTGTKVTVL
B19: antibody 439 (antibody, V domains shown)
VH: B5 VH with L48V, S99P, F100P, Y104S, G107P, M108F, V110P, T116L
VL: not shown
B20: antibody 444 (antibody, V domains shown)
VH: QVQLVESGGGLVKPGGSLRLSCAASGFTFSDYYMSWIRQAPGKGLEWVSYISSSGSTIYYADSVKGRFTISRDNAKNSLYLQMNSLRAEDTAVYYCARERKVVVAATRNYYYYYGMDVWGQGTTVTVSS
VL: SYELTQPPSVSVSPGQTARITCSGDALPKQYAYWYQQKPGQAPVLVIYKDSERPSGIPERFSGSSSGTTVTLTISGVQAEDEADYYCQSADSSTWVFGGGTKLTVL
B21: antibody 434 (antibody, V domains shown)
VH: QVQLVQSGAEVKKPGASVQVSCKASGYTFSDYYIFWVRQAPGQGLEWMGCINPKSGGAIYAQRFQGRVTMTRDTSFNTAYMEMNRLGSDDTAVYYCVTRGPPDIAASGFAWHLDVWGQGTTVTVSS
VL: DIVMTQSPLSLPVTPGEPASISCRSSQSLLSSNGYNYLEWYLQKPGQSPQLLMYLGSNRASGVPDRFSGSGSGTDFTLKINRVEAEDVGVYYCMQALQTPLTFGGGTKVEIK
B22: antibody 443 (antibody, V domains shown)
VH: QMRLEESGPGLVKPSETLSLTCTVAGGSITSSDYFWGWLRQSPGKGLEWIASTYHGGSIQYHPALKSRVTISVDASKNQISLRLSSVTAADTAVYYCARDRGDDGPMGTYYFDHWGQGALVTVSS
VL: QSVLTQPPSVSGAPGQSVTISCAGSSSNIGAGHDVHWYQQIPGTAPKLLICGNTNRPSGVPERFSGSRSGTSASLAITGLQAEDEAVYYCQSYDPSHVFFGTGTKLTVL
B23: antibody 452 (antibody, V domains shown)
VH: QVQLVESGGGLVKPGGSLRLSCAASGFTFSDYYLSWIRQAPGKGLEWVSYISSSGSNIYYADSVKGRFTISRDNAKNSLYLQMNSLRADDTAVFYCARAGRYCSGGSCRVEYFQHWGQGTLVTVSS
VL: SYELTQPPSVSVSPGQTARITCSGDALPKQYAYWYQQKPGQAPVLVIYKDNERPSGIPERFSGSSSGTTATLTISGVQAEDEADYYCQSADSSGTVVFGGGTKLTVL

The binders below were run against SARS-CoV-2 full length spike protein (wild-type), conjugated to optically encoded beads (SARS-CoV-2, UniProt P0DTC2 14-1208).

Row | Binder | median fluorescence fold over isotype [fold over isotype]
1 | B1 | 642
2 | B2 | 939
3 | B3 | 606
4 | B4 | 1160

The binders below were run against SARS-CoV spike protein (full length spike, trimeric, conjugated to beads) (SARS-CoV, UniProt P59594 14-1190).

Row | Binder | median fluorescence fold over isotype control [fold over isotype control]
5 | B5 | 49.9
6 | B6 | 59.6
7 | B7 | 1.08
8 | B8 | 80.9
9 | B9 | 1.09
10 | B10 | 1.07
11 | B11 | 1.36
12 | B12 | 1.23
13 | B13 | 1.04
14 | B14 | 1.16
15 | B15 | 1.19
16 | B16 | 1.03
17 | B17 | 1.19

These binders were tested against SARS-CoV spike protein (full length, trimeric) (SARS-CoV, UniProt P59594 14-1190).

Row | Binder | fold over isotype control (median fluorescence) [fold over isotype]
18 | B18 | 6.58
19 | B19 | 1.23
20 | B20 | 1
21 | B21 | 1.36
22 | B22 | 1.03
23 | B23 | 1.09
